Assay [1] addresses recombinant Lymnaea stagnalis acetylcholine-binding protein (AChBP) produced in LEXSY (Lymnaea stagnalis). Put plainly: radioligand binding.
The target in assay [2] is T1, recombinant L. stagnalis AChBP expressed in the insect Sf9 cells (Lymnaea stagnalis, UniProt P58154 20-229).
T1 construct: also called insect cell-produced AChBP; standard specimen of insect cell-produced AChBP
Kind of assay: radioligand binding. The settings on record: both partners purified.

Usually Kd stands for the constant that tells how readily two partners part at equilibrium.

T1 sequence (P58154 20-229): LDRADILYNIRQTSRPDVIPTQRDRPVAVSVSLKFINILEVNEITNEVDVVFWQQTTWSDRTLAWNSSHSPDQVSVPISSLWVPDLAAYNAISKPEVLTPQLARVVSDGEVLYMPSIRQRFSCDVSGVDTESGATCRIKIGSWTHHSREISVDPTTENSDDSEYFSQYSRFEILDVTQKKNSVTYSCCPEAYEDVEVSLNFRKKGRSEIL
recombinant Lymnaea stagnalis acetylcholine-binding protein (AChBP) produced in LEXSY (Lymnaea stagnalis), sequence (P58154 20-229 limits assumed): as the sequence (P58154 20-229) above

As for “radioiodinated α-bungarotoxin (from UniProt P60615 22-95) (ligand)”, the dissociation constant (Kd) in assay [1] amounted to 0.05 nM.

B1: radioiodinated α-bungarotoxin (ligand)
chain: IVCHTTATSPISAVTCPPGENLCYRKMWCDAFCSSRGKVVELGCAATCPSKKPYEEVTCCSTDKCNPHPKQRPG
B1: the dissociation constant Kd in assay [2] was determined as 0.062 ± 0.013 nM.

(Values after publication PMC10934791 (Molecules, 2024).)
